# Reference: patent publication US20110300066A1
# Target: CD20 (human) (UniProt P11836)
# Test: cell-based or functional assay
# Sequence of CD20 (human) (P11836 whole entry): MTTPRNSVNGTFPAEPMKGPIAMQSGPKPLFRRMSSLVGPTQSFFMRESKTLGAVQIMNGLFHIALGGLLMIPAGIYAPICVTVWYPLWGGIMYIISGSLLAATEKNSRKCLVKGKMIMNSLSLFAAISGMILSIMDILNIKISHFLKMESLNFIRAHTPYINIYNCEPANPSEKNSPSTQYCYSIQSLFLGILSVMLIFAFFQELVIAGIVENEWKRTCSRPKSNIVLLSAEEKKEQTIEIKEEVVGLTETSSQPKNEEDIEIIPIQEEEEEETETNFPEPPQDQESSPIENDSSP
substance,measurement,value
20-Rap (antibody),"in vitro cytotoxicity EC50, Daudi and Ramos cells",0.0001 µM
same,"in vitro cytotoxicity EC50, Jeko-1 cells",20 µM
